Assay: label from the status in PepcDB records

Sequence | protein production
MNLLPGFAYIEMESISNLTPLVMKTLAGFIAGIPKAELHLHIEGTLEPEMMLALGERNGVPLPYPDADAAKSAYHFSDLQSFLDIYYRATAVLVTEQDFYDLTIAYLQKAVSRKVCHAEIFFDPQSHIARGVPFETVVGGIGQALSDANGGLGISTKLIMCILRHLSEEDGNAVLEQAVRWKRWISGIGLDSSEKGNPPGKFRELFAKARHYGFFTVAHAGEEGNASSISEALDALHVIRIDHGVHCMEDPVLVERLRLDRIPLTICPLSNVRLNVFGSMREHNLKTMLDAGLCVTINSDDPAYFGGYVNENYLAAAEALNLDRNDIIRLARNSFEASVLSNVQKKLYLQKLDHYVDSFIQ | failed
MNLPFAPQSFAALLVMVMTLAHGSVSAQESFRVELGRDGETLGDMRPVFLKFESRPLPAISPLEVARRYQKLFESSDEPEVRIDALNRLNNIRNRSGEDVGFSEEREAAIYEEVLESYESILAKGSFSGRLDELLYQMAKAHALTGQPEQSIARLKQLVGLYPNSELVPEARFRIAEAAFSAGRYAEAEAGYRQLLEHDSHQELAAKARYMLGWSQFKQGNPAWARASASFTAVLDQQLPDHSALANPPAHSMDMLEDTFRVLALMASRQSDARTLADWLDGRESSAWQHLLYDRLADLHAVERRYERAVLVNNAFVSEFPGHTASPDFLAQSVSYWQLAGNTSKALAARDDYIQRLGAEARFQTMTPEQKGLWAQYSRFLADHYYATGTDLSSRNQTAAASEAWAKAAHYYERLAPRSEQAGELLHLAGDARLLAGDRTEAVRNFRAAAYDHRHGDSRDSAWAAIRIVREDLELASGENRTATLLVLSNEEQRYAEAFGPDQRLSGLRADLANRWYDLGEFERALHYASSTLTWERAGVTERYAAWLVTARIRQKNNEFGLAERAWRQALPLADEASQDAESQRRSLLEQLASAIYQQGEKAARAGDATLAVAHFQRVEGVMPGSEIAIKARYDAANTLLRASDWLAAINELQRFRIDYPSHELTPETSEKLVLAYQESGQGLKAAEELLNRSETLADPWPTRLRAAAIFHAEGDSASRNQLYKNWLAVAPTPDSADEHVQHQTMRQRLIESGDSVIAVREQLLARERASQWHSDGTLKWAADAALFFGAQTAERFAGIALVHPLEQALARKQAAMQQAQEYLQEAESFAGDGVRSEVLYRRAELYRTLASDLMSSEVPAELNEMEAMQYQMLLEEEAFPLEEEAMALHARNHERIPTEGFDEWIQRSLEALATMHPGRYDRQLRWMSWTTDTNQGGS | failed
MNLPHLMSLASHLASHGFFCLRFTCKGLNIVHRIKAYKSVLNYLKTSGEYKLAGVFLGGRSMGSRAAASVMCHIEPDDGDDFVRGLICISYPLHHPKQQHKLRDEDLFRLKEPVLFVSGSADEMCEKNLLEKVAQKMQAPHKIHWIEKANHSMAVKGRSTNDVFKEINTQILFWIQEITEMDKKCH | failed
MNLTRLREKILNKSHSAMLIFSDINISYLSTFTGHAATILLTSKGNYLLTDYRYFEQAKTQASHFNVICRDRANQSLASLIEDLLFQDDCQSLSFESEHISVMQWQQIHQQISQLTKLSQIEAVSGAVEALRFIKSTSEISSIEQAAKIADTALAAMLNSVKAGVTERELAIELDYQMAKLGSEEVSFATILLFGERSALPHGIPSDKQLKLGDIILIDFGAVVNGYRSDMTRTFVFGQASAEQKHIYQLVQSAQQAAIDAVYEGVLGSHLYQQSANILLNSEYKKYAGEGLGHGVGLVLHEQPFIGPDCHTTIEKGCVITIEPGIYIPGWGGIRIEDDVVLTDEGLKILTKSPKGLIEL | failed
MNLVETAQAIEAGQVSLGIELGSTRIKAVLVTDDFNTIASGSYVWENRFEDGVWTYPLEEVWSGIQQSYTQMAADVQSKYHASLKHINAIGVSAMMHGYLAFDKNNELLVPFRTWRNNITGQSADELTKLFDFNIPQRWSIAHLYQAVLNDEDHVAKVDFITTLAGYVTWKLSGEKVLGVGDASGVFPIDEKTGSYDQAMLDKFSSLDNVKRYPWQIENILPSILPAGKIAGKLTADGANLLDASGNLEAGSVMAPPEGDAGTGMVGTNSVRKRTGNISVGTSAFSMNVLDKPLSKVYRDIDIVMTPDGSPVAMVHVNNCSSDINAWASIFSEFAARLGVDLKPDRLYETLFLESTKADANAGGLVNYSYQSGENITKIQAGRPLFVRTPNSKFSLPNFMLTQLYAAFAPLQIGMDILVNEEHVQTDVMIAQGGLFRTPVIGQQVLANALNIPITVMSTAGEGGPWGMAVLAAYAQRQTGANLEDFLDQEVFTNPESMTLSPEPAGVAGYQEFIKNYQAGLPVEAAAGEAISD | failed
MNMAHTTTSMEIFGSPEQVWQLIGGFNSLPDWLPYIPSSKLTEGGRVRHLANPDGDTIIERLEVFNDKERYYTYSIMNAPFPVTNYLSTIQVKEGTESNTSLVEWSGTFTPVEVSDEEAINLFHGIYSDGLKALQQAFLDLEHHHHHH | not failed
MNMVQGSAFLAKLMKSADTFELKYDFSCELYRLSTYSTFPAGVPVSERSLARAGFYYTGVNDKVKCFSCGLMLDNWKQGDSPIEKHRKLYPSCSFVQTLNPANSLEASPQPPLPSTATSTMPSGFAASESTGYFSGSYSSFPSDPVNFRANQDCPAFSTSPYHFAMNTEKARLLTYQTWPLSFLSPAELAKAGFYYTGPGDRVACFACGGKLSNWDRKDDPLSEHRRHFPSCPFLKDVGQFTSQYTVSNLSMQTHAARVRTFSTWPSSALVHPQELASAGFYYTGHSDDVKCFCCDGGLRCWESGDDPWVEHAKWFPRCEYLIRIKGQEFVGQVQAGYPHLLEQLLSTSDSPEDETGEAAIVHLGPGENWEDAVMMNTPVVKAALDMGFSRSLVRQTVQRQILATGENYRTVSDLVIGLLDAEDEMREEQTEQEAEEEESDDLTLIRKNKMVLLQHLTPVTPILDCLLSARVITEQEYDAVKQKPHTLQARTLIDTVLAKGNTAATSFRNSLQEIDPGLYRDIFVRQNIRSLPTDDIAALPMEEQLRKLQEERTCKVCMDREVSLVFIPCGHLVVCKECAPSLRKCPICRGTIKGTVRTFLS | failed
MNNDNNTILGFDVNLICDFFLNTERQGPGSPEVTLKALSFIDNLTNKSLIADLGCGTGGQTMILAQHVPGKITGIDFFPGFIERFNKNAEKLNLQNRVKGIVGSMDDLSFEKDSLDLIWSEGAIYNIGFERGLKEWRNYLKPGGYLAVSESVWFTDQRPAEIHDFWMSAYTEIDTVPNKVAQIQKAGYIPVATFILPENCWIEHYFAPQAKAEEIFRRKHAGSRIVEELITSNHHEAELYSKYKAYYGYAFFICKKGFSLRR | failed
MNNGRRIGLIMIITGATLWGLSGPMIQWLFQHTNVSSIDFLTIRLLLAGIFILSFLLIKKQNIFQIWKHPRYSIQLIIFSILGMLGAQYAFIETVHISNAVTATLFQFLGPVLITMYVAFEQRKFPASMQLFAIIAALIGTYFIITNGSIENIVLSKEAIIFGLLTAIGFAFYTLHPASLIKECGTTVVIGWGMLIGGIALLIYNRSFGWNQFSQTLTLKTFSMLILIIISGTLSFLLYIGSLKYLAATETSILSSIEPLVAAIVSITWLNESFGTYQLLGGVCIVLSVIFLTMPQKETEPTYTTEQI | failed
MNNIILMPILIPFLGAITLMLLPKRVIVQRVFALIFSGILVVATIGLVFYIRENGITTVNIGNWAAPFGITMVGDMLAVLLTATTSIVLFCVILYSFYTIGKPREKFLYYPAILFMIVGVNGSFLTGDIFNMFVFFEVMLMASYVLLVIGGTQVQLKATIKYLLINVVGSGFFVVAIALLYSMIGTLNMADISQKITDLNGANTGMISIVAVLFLFVFGLKAGLFPLYFWLPGSYFAPPIPVLALFGGLLTKVGVYAIIRTYTLFFSSLTDFVVPLLGILAIVTIILGVIGAISYYDMKTIVIYNIMIAIGVILFSVSIMTRESMTGAVFYLIHDMIIKAALFLIVGIVMAITGYSSVKKFSGLMSVKPSLGWIFFIATLGLAGIPPLSGFIGKLLIVEGAFSAGQMVGGIIILLSSLFVLMSLIKVFTKGFWGEKKGVFNLQIPYKKMLVPVVILLAISIGYGVFSNAIYPFIEQAVDPLVDPSVYIHAVIKE | failed

— a protein production outcome set (Wang et al. 2014)
